Reference: the supplement of paper PMC10899765

How the values were obtained:
Conditions in all cases: 20 nM; 72 h
MCF10A [1] = experiment: 5+ nucleoli phenotype percent effect (relative to siNT 0% and siKIF11 100%); higher = more cells with five or more nucleoli
Method: (§1)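 After 72 h, cells were fixed and stained with Hoechst and anti-fibrillarin, and nucleoli per nucleus were counted with CellProfiler. Values are plate-adjusted percent effect for the one-nucleolus and 5+ nucleoli phenotypes, normalised to siNT (0%) and to the positive controls siNOL11 or siKIF11 (100%), as the mean of biological triplicates. Percent viability is the nuclei count relative to siNT.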

MCF10A [2] = experiment: percent viability (nuclei count relative to siNT); higher = more viable cells
Method: as §1

MCF10A [3] = experiment: one-nucleolus phenotype percent effect (relative to siNT 0% and siNOL11 100%); higher = more cells with one nucleolus (ribosome biogenesis inhibition)
Method: as §1

| Sequence | 5+ nucleoli phenotype percent effect (MCF10A [1]) [%] | percent viability (MCF10A [2]) [%] | one-nucleolus phenotype percent effect (MCF10A [3]) [%] |
| --- | --- | --- | --- |
| GCAGGCACAGACAGCCCUGGC [hsa-miR-4269] | -29 | 30.1 | 43.1 |
| GCAGGGACAGCAAAGGGGUGC [hsa-miR-211-3p] | -20.9 | 38.3 | 9.24 |
| GCAGGUGCUCACUUGUCCUCCU [hsa-miR-764] | -23.5 | 23.9 | 49.3 |
| GCAGUAGUGUAGAGAUUGGUUU [hsa-miR-3129-5p] | 12.6 | 40.7 | -15 |
| GCAGUCCAUGGGCAUAUACAC [hsa-miR-455-3p] | 26.8 | 112 | -12.4 |
| GCAGUGGCUCUGAAAUGAACUC [hsa-miR-5693] | -12.8 | 33.8 | -3.8 |
| GCAGUUCUGAGCACAGUACAC [hsa-miR-4277] | 31.2 | 210 | -25 |
| GCAUGUGAUGAAGCAAAUCAGU [hsa-miR-3607-5p] | -8.33 | 52.8 | -2.14 |
| GCAUUGUGCAGGGCUAUCA [hsa-miR-4289] | 7.06 | 35 | -8.06 |
| GCCCAAAGGUGAAUUUUUUGGG [hsa-miR-186-3p] | 26.4 | 176 | -20.2 |
| GCCCAGGACUUUGUGCGGGGUG [hsa-miR-6840-3p] | 16.2 | 117 | -16.9 |
| GCCCCGGCGCGGGCGGGUUCUGG [hsa-miR-4707-5p] | 42.2 | 116 | -25 |
| GCCCCGGGCAGUGUGAUCAUC [hsa-miR-5587-3p] | 18.8 | 108 | -20.5 |
| GCCCCUGGGCCUAUCCUAGAA [hsa-miR-331-3p] | 8.19 | 61.2 | 6.3 |
| GCCCGAGAGGAUCCGUCCCUGC [hsa-miR-4740-3p] | 17.8 | 65.9 | -18.2 |
| GCCCGCGUGUGGAGCCAGGUGU [hsa-miR-1471] | 49.2 | 97.1 | -18.2 |
| GCCCUCCGCCCGUGCACCCCG [hsa-miR-1470] | 45.2 | 113 | -19.6 |
| GCCCUCUGUCACCUUGCAGACG [hsa-miR-2276-5p] | 60.2 | 103 | -20.8 |
| GCCCUGAACGAGGGGUCUGGAG [hsa-miR-345-3p] | 29.8 | 61 | -13.5 |
| GCCCUGACCUGUCCUGUUCUG [hsa-miR-4732-3p] | 21.5 | 64.3 | -20.3 |
| GCCGGACAAGAGGGAGG [hsa-miR-4442] | 25.4 | 96 | -19.9 |
| GCCGGGGCUUUGGGUGAGGG [hsa-miR-6784-5p] | 49 | 171 | -23.3 |
| GCCUAUCACAUAUCUGCCUGU [hsa-miR-3927-5p] | 67.2 | 73.9 | -27.5 |
| GCCUCUCUCGGAGUCGCUCGGA [hsa-miR-3183] | 40 | 77.6 | -23.3 |
| GCCUGCUGGGGUGGAACCUGGU [hsa-miR-370] | -25.5 | 45.3 | 12.5 |
| GCCUGGAGCUACUCCACCAUCUC [hsa-miR-4254] | 11.1 | 26.1 | 7 |
| GCGACCCACUCUUGGUUUCCA [hsa-miR-551a] | 39.1 | 81.6 | -18 |
| GCGACCCAUACUUGGUUUCAG [hsa-miR-551b-3p] | 23.7 | 111 | -14.5 |
| GCGACUCUGAAAACUAGAAGGU [hsa-miR-4431] | 34.2 | 82.9 | -23.7 |
| GCGAGGACCCCUCGGGGUCUGAC [hsa-miR-611] | 45.7 | 121 | -31.1 |
